Results from patent publication US20130295071A1 (SHIRE HUMAN GENETIC THERAPIES, published 2013).

Biological target: the molecule itself
Assay: sedimentation velocity AUC, 150 mM NaCl, pH 6.0; self-association

B1: mouse galactocerebrosidase (mGalC), recombinant (enzyme)
chain: YVLDDSDGLGREFDGIGAVSGGGATSRLLVNYPEPYRSEILDYLFKPNFGASLHILKVEIGGDGQTTDGTEPSHMHYELDENYFRGYEWWLMKEAKKRNPDIILMGLPWSFPGWLGKGFSWPYVNLQLTAYYVVRWILGAKHYHDLDIDYIGIWNERPFDANYIKELRKMLDYQGLQRVRIIASDNLWEPISSSLLLDQELWKVVDVIGAHYPGTYTVWNAKMSGKKLWSSEDFSTINSNVGAGCWSRILNQNYINGNMTSTIAWNLVASYYEELPYGRSGLMTAQEPWSGHYVVASPIWVSAHTTQFTQPGWYYLKTVGHLEKGGSYVALTDGLGNLTIIIETMSHQHSMCIRPYLPYYNVSHQLATFTLKGSLREIQELQVWYTKLGTPQQRLHFKQLDTLWLLDGSGSFTLELEEDEIFTLTTLTTGRKGSYPPPPSSKPFPTNYKDDFNVEYPLFSEAPNFADQTGVFEYYMNNEDREHRFTLRQVLNQRPITWAADASSTISVIGDHHWTNMTVQCDVYIETPRSGGVFIAGRVNKGGILIRSATGVFFWIFANGSYRVTADLGGWITYASGHADVTAKRWYTLTLGIKGYFAFGMLNGTILWKNVRVKYPGHGWAAIGTHTFEFAQFDNFRVEAAR
notes: also called rmGALC; rmGalC
Question: Does B1 bind?
Answer: Result: binds
